Results from article PMC9565801 (Science Advances, 2022).

Target: the molecule itself
Assay: crystal structure

| Protein | stoichiometry N |
| --- | --- |
| ketosteroid isomerase (KSI) Y32F/Y57F from Pseudomonas putida (enzyme) MNLPTAQEVQGLMARYIELVDVGDIEAIVQMFADDATVEDPFGQPPIHGREQIAAFFRQGLGGGKVRACLTGPVRASHNGCGAMPFRVEMVWNGQPCALDVIDVMRFDEHGRIQTMQAYWSEVNLSVREPQ | 2 |
| ketosteroid isomerase (KSI) Y57F from Pseudomonas putida (enzyme) MNLPTAQEVQGLMARYIELVDVGDIEAIVQMYADDATVEDPFGQPPIHGREQIAAFFRQGLGGGKVRACLTGPVRASHNGCGAMPFRVEMVWNGQPCALDVIDVMRFDEHGRIQTMQAYWSEVNLSVREPQ | 2 |
